# According to the DeepSol protein solubility set:
# Assay: soluble on expression in E. coli; label from the status in PepcDB or PDB records
row,Sequence,soluble on expression in E. coli
1,QKLVQLILDEIVEGGAKVEWTDIAGQDVAKQALQEMVILPSVRPELFTGLRAPAKGLLLFGPPGNGKTLLARAVATECSATFLNISAASLTSKYVGDGEKLVRALFAVARHMQPSIIFIDEVDSLLSERSSSEHEASRRLKTEFLVEFDGLPGNPDGDRIVVLAATNRPQELDEAALRRFTKRVYVSLPDEQTRELLLNRLLQKQGSPLDTEALRRLAKITDGYSGSDLTALAKDAALEPIRELNVEQVKCLDISAMRAITEQDFHSSLKRIRRSVAPQSLNSYEKWSQDYGDITIK,soluble
2,MNSKCHCVILNDGNFIPVLGFGTALPLECPKSKAKELTKIAIDAGFHHFDSASVYNTEDHVGEAIRSKIADGTVRREDIFYTSKVWCTSLHPELVRASLERSLQKLQFDYVDLYLIHYPMALKPGEENFPVDEHGKLIFDRVDLCATWEAMEKCKDAGLTKSIGVSNFNYRQLEMILNKPGLKYKPVCNQVECHPYLNQMKLLDFCKSKDIVLVAYGVLGTQRDGGWVDQNSPVLLDEPVLGSMAKKYNRTPALIALRYQLQRGIVVLNTSLKEERIKENMQVFEFQLSSEDMKVLDGLNRNMRYIPAAIFKGHPNWPFLDEY,soluble
3,GPGSMDSMCTFIIRPPRSTYEIADLGPGVFRIGDDCTERFMRHDFELENMRGLRFQCSWFKPYPARRVPCVVYCHANCGGRYDGLEALFLLQEGFSLFCFDFCGSGMSEGEYISLGFYERQDLVAIVEFLSLKSDEVDGVALWGRSMGAVATIMYASKGSIRGFVVLFAIRPSHPCGCSSTIWWSDMVGERPGFCQRFWCTGLWSASVSAS,not soluble
4,MSNSDDEIQEIEAKRQKMSQEDSEVEIEILDEPEQGKLKNSSMSDEQKLHEFAIITATDEAFAQSILQDVDWDLKKALDVFYGSEAFAEARSAAVMGASSSMASSGAAVMTAEDLKGFEVSVMSWNIDGLDGRSLLTRMKAVAHIVKNVNPDILFLQEVVDRDLAPIDKLQSLYKIYYSNKGCQYYTAILVSKMFDVEKHDVIHFQNSGMYRTLQILEGSIGGLKVFLLNTHLESTREHRPQRCAQFGFCMDKVREIIAQNPGALVFFGGDLNLRDEEVSRVPDGVKDAWEAAGSDNKTKFTWDTFKNDNKQGFHGAKMRFDRLYWSGPLDKVKFTLEGRQRIRSCLCFPSDHWAINATFFA,not soluble
5,MNAQEFKEKKTETTGAHHAQRLGIAAGMTVQEVGWDEDCDSTISEAIEDILGEELLDEETDEACDVVLLWWRSDDGDLVDGLVDSIRPLADNGRIWLLTPGAGKQGALDPGEISESAQLAGLVQTKAERLGAWQGSCLVQRGNKQ,not soluble
6,VTNWWSGDKRYQRFIERLLSVFEGRVLELPAESHGNVAVMAFQSSPKEQNIDKLKKRADKLSNAYGLDFHRMLAGLKASNPNNGKHFHL,not soluble
7,MKVVVQIKDFDKVPQALRSVINLYNDIKDAEIEVVLHQSAIKALLKDSDTRSIIEDLIKKNILIVGCENSIRSQNLSHDQLIPGIKIVTSGVGEIVRKQSEGWIYLAL,soluble
8,MGMIVFVRFNSSYGFPVEVDSDTSILQLKEVVAKRQGVPADQLRVIFAGKELPNHLTVQNCDLEQQSIVHIVQRPRRR,soluble
9,MGSDKIHHHHHHMKVNILMSTYNGQEFIAQQIQSIQKQTFENWNLLIRDDGSSDETPKIIADFAKSDARIRFINADKRENFGVIKNFYTLLKYEKADYYFFSDQDDVWQPQKLELTLASVEKENNQIPLMVYTDLTVVDRDLQVLHDSMIKTQSHHANTSLLEELTENTVTGGTMMVNHCLAKQWKQCYDDLIMHDWYLALLAASLGKLIYLDETTELYRQHESNVLGARTWSKRLKNWLRPHRLVKKYWWLVTSSQQQASHLLELDLSAANKAIIQAYVTLLDQSFLNRIKWLKQYGFAKNRAFHTFVFKTLIITKFGYRRK,not soluble
10,MAHHHHHHMKSFSVTPRVWRRISEKNAEEGYGNDLRYLRLMIESGGCHGYAYKFLFEENSELVADEDVVVAESDVVQLPQPKSQELRTVAEGEGEGDVGESKAKGPPPRLVVDKHSVAKLLSAVVDFHSELKGSAFVVIGNELVDKSCACAMSFSMKKQQQKV,not soluble
11,GMYNPVGVAAIGLGRWAYVMADAYTKSEKLKLVTCYSRTEDKREKFGKRYNCAGDATMEALLAREDVEMVIITVPNDKHAEVIEQCARSGKHIYVEKPISVSLDHAQRIDQVIKETGVKFLCGHSSRRLGALRKMKEMIDTKEIGEVSSIEAVFSNERGLELKKGNWRGEPATAPGGPLTQLGVHQIDNLQFLLGPVARVFNFGKPMYTEVENITVNQTLLEFEDGKQAYLGTNWACPGVFSINVYGTKANLFYQLDFSWWSNSDVTDEHSTLIKREFASMSDDPDNRILRDVKVDFESVDHLRVEVEEVADVIRNGGETEIGAEASLRNLAVVLAAVKSVHEKRPVEIAEIIG,soluble
12,MFQLLAVCPMGLEAVVAKEIQELGYDTQVENGRIFFEGDESAIVRCNLWLRTADRIKIVMGRFNATTFDELFEQTKSLPWETVIDKEGNFPVQGRSVKSTLYSVPDCQAITKKAIVERLKHAHQEKGWLSETGAKYPVEVAILKDNVLLTIDTAGSGLNKRGYRIAQGEAPIKETLAASLIRLANWNGNTPLIDPFCGSGTIAIEACLIAQNIAPGFNRDFVSEQWNMMPPNIYDKFRDEADQLADYDKDIQVYASDIDPEMIEIAKRNAEEVGLGDIIQFNVKDVNTLSIDTDKPVALVGNPPYGERIGDREEVEEMYRYIGTLLKQHPHLSAYILTSNKEFEYLVNRKATKRRKLFNGYIECTYYQYWGKKQSNKN,not soluble
13,MELISVTKDNLEQEHICCAISNNKDCQVLSKKNWLNEQFEDGLVFLKGNVRGKCFIEYMPAEKAWAPVEADGYMYINCLWVSGQFKGQGYSNLLLEECIRDSREKGRLGLVVLTSKKKMPYLSDPKFLGYKGFIRADSAEPYFELFYLPFEADAPKPQFKEQVRQPRTEENGFVLYYTRQCPFTAKYVPLIESAAEENNIPFKAVLFKTSGEARNAPAPFTTYSLFYNGRFITNEILSEKRFEKILEAEGLG,not soluble
14,MAHHHHHHMDSEETINLAVKYAKEAVVEDEKKNYKEALNLYIQSLQYFNFFCKYEKNSNIRDLILKKMEVYMTRAENLKEMLNKKDSIENKEKITNTEETKENMKKQIKQFILNKNNNIKWSDVCGLETAKEVLKEAIIFPLKFPKLFNSSTLPYKGILLYGPPGTGKTFLALACSNECNMNFFNVSSSDLVSKYQGESEKYIKCLFETAKEHSPAIIFIDEIDSLCGSRTDGENESTRRIKTEFLINMSGLTNYKNNIIVMGATNTPWSLDSGFRRRFEKRIYIPLPNIYARAKIFEKYINQNENNNISKEDIKQFATLTENYTGADIDILCRDAVYMPVKKCLLSKFFKQVKKNNKICYTPCSPGDSDPTKVEKNVMSLSENELSLPPLTVQDFKTAISNAKPSLSVDDIKKYEEWTHQYGMNGT,not soluble
15,MAHHHHHHMWSPSNKRDSLINSDDTFFPFLFHFPGSHPRQMLSSFFASRSRGSWIPAVDISEQDDGYILVADLPEVKKEDLRVYTESSSIICISGNRKHILKQDEHQLLVAERGAGRFERCFDLPTSVDSSKIKASFNDQQLNLSIPKLRNSKSGASNSVTID,soluble
16,MAKQTIIVMSDSHGDSLIVEEVRDRYVGKVDAVFHNGDSELRPDSPLWEGIRVVKGNMDFYAGYPERLVTELGSTKIIQTHGHLFDINFNFQKLDYWAQEEEAAICLYGHLHVPSAWLEGKILFLNPGSISQPRGTIRECLYARVEIDDSYFKVDFLTRDHEVYPGLSKEFSR,soluble
17,MGSDKIHHHHHHMSISQMQVFNKYFMPAIIETLGQQIQKFNAASRGAIMLTTAGFEGDFLQESFYQAIHGARRRVDRYAANGSASPTDLTQLKHSSVKVAGGFGPIRYEPSQMTWLEKPTAEGIEVASRHFAEALLQDQLNTAIAALVAAISNQALATVNVSAKTGLNYSVLNDAHAKFGDSSGLIVANVMSGQVYHKLIGQNLVNAQQLFEYGAVTVVDILGKTVVVTDAPALYATGTPNLQKVLGLVAGAATVSDGGDLITNIETSNGKERIETTFQADYTFGLGLKGYTWDEATGGKSPTDAELATGTNWDKVATDIKHTAGVIAIGDASK,not soluble
